Reference: US6348572B1, “Ligands for phosphatase binding assay” (Merck Frosst Canada & Co., priority 1996, dated 2002)
Residue numbers refer to the chain shown, from its start. Square brackets hold non-standard residues; d marks the D form. Ends that are not written are not given here. Peptide text beside a SMILES is read from it. * marks the point of attachment. F2Pmp = N[C@@H](Cc1ccc(C(F)(F)P(=O)(O)O)cc1)C(=O)O; Bz = O=C(c1ccccc1)*

Legend:
[1] = target: T1, GST-PTP1B Non-Mutated (Cys215) (Homo sapiens, UniProt P18031); experiment: GST-PTP1B SPA binding assay, non-mutated (Cys215) enzyme; competition with tritiated BzN-EJJ-CONH2; conditions: for IC50: non-mutated (Cys215) GST-PTP1B
T1 construct: made in house; host or cells: E. coli
T1 sequence (P18031 1-320): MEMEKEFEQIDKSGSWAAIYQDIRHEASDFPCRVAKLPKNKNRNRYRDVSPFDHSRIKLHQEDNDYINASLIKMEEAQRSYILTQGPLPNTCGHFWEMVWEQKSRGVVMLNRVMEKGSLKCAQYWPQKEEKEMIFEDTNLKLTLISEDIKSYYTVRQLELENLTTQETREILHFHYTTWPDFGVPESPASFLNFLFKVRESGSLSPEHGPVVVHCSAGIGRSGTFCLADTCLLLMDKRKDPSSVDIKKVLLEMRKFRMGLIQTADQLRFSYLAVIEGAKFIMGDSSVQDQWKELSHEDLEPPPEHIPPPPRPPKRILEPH
Experimental: (§1) Enzyme: Human recombinant PTPLB, containing ammo acids 1-320, (Seq. ID No. 1) fused to GST enzyme (glutathione S-transferase) purified by affinity chromatography. Wild type (Seq. ID No. 1) contains active site cysteine(215), whereas mutant (Seq. ID No. 7) contains active site serine(215).
(§2) Tritiated peptide: Bz-NEJJ-CONH2, Mwt. 808, empirical formula, C32H32T2O12P2F4
(§3) To each well is added the following solutions @ 25° C. in the following chronological order:
(§4) 1. 110 μl of assay buffer.
(§5) 2. 10 μl. of 50 nM tritiated BzN-EJJ-CONH2 in assay buffer (1X) @ 25° C.
(§6) 3. 10 μl. of testing compound in DMSO at 10 different concentrations in serial dilution (final DMSO, about 5% v/v) in duplicate @ 25° C.
(§7) 4. 10 μl. of 3.75 μg/ml purified human recombinant GST-PTP1B in enzyme dilution buffer.
(§8) 5. The plate is shaken for 2 minutes.
(§9) 6. 10 μl. of 0.3 μg/ml anti-glutathione S-transferase (anti-GST) rabbit IgG (Molecular Probes) diluted in antibody dilution buffer @ 25° C.
(§10) 7. The plate is shaken for 2 minutes.
(§11) 8. 50 μl. of protein A-PVT SPA beads (Amersham) @ 25° C.
(§12) 9. The plate is shaken for 5 minutes. The binding signal is quantified on a Microbeta 96-well plate counter.
(§13) 10. The non-specific signal is defined as the enzyme-ligand binding in the absence of anti-GST antibody.
11. 100% binding activity is defined as the enzyme-ligand binding in the presence of anti-GST antibody, but in the absence of the testing ligands with the non-specific binding subtracted.
12. Percentage of inhibition is calculated accordingly.
13. IC50 value is approximated from the non-linear regression fit with the 4-parameter/multiple sites equation (described in: “Robust Statistics”, New York, Wiley, by P. J. Huber (1981) and reported in nM units.

[2] = target: T2, PTP1B (Homo sapiens, UniProt P18031); experiment: inhibition of PTP1B (stated in text, method not given); assay type: biochemical; conditions: read-out: active inhibitor of PTP1B (potency, type not given)
T2 sequence (P18031 1-435): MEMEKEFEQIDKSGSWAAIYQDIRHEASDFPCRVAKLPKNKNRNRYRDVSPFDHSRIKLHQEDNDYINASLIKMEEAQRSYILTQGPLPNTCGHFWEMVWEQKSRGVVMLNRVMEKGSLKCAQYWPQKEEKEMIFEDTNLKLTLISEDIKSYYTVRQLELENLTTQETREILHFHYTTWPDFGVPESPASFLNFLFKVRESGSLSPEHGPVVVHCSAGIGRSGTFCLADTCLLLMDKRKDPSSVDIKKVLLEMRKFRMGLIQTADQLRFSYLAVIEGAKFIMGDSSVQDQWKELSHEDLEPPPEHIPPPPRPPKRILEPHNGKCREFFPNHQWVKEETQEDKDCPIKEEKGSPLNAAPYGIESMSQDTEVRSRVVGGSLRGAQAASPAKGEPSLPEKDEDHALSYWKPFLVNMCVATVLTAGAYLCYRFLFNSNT

[3] = target: T3, GST-PTP1B Mutated enzyme (Ser215) (Homo sapiens, UniProt P18031, C215S); experiment: GST-PTP1B SPA binding assay, mutated (Ser215) enzyme; competition with tritiated BzN-EJJ-CONH2
T3 construct: made in house; host or cells: bacteria (DH5α named for the transformation; E. coli stated for the wild-type fusion)
T3 sequence (P18031 1-320 C215S): T1 sequence (P18031 1-320) with C215S
Experimental: as §1, §2, §3, §4, §5, §6, §7, §8, §9, §10, §11, §12, §13
11. […]
12. Percentage of inhibition is calculated accordingly. […]

[4] = target: Human recombinant PTP1B, containing amino acids 1-320, Cys215Ser mutant, fused to GST enzyme (glutathione S-transferase) (human) (UniProt P18031); experiment: SPA raw counts, mutant GST-PTP1B with tritiated BzN-EJJ-CONH2, no anti-GST antibody, no cold tripeptide, second duplicate
[5] = target: Human recombinant PTP1B, containing amino acids 1-320, Cys215Ser mutant, fused to GST enzyme (glutathione S-transferase) (human) (UniProt P18031); experiment: SPA raw counts, mutant GST-PTP1B with tritiated BzN-EJJ-CONH2, anti-GST antibody present, no cold tripeptide, second duplicate
[6] = target: Human recombinant PTP1B, containing amino acids 1-320, Cys215Ser mutant, fused to GST enzyme (glutathione S-transferase) (human) (UniProt P18031); experiment: SPA raw counts, mutant GST-PTP1B with tritiated BzN-EJJ-CONH2, anti-GST antibody present, no cold tripeptide, first duplicate
[7] = target: Human recombinant PTP1B, containing amino acids 1-320, Cys215Ser mutant, fused to GST enzyme (glutathione S-transferase) (human) (UniProt P18031); experiment: SPA raw counts, mutant GST-PTP1B with tritiated BzN-EJJ-CONH2, no anti-GST antibody, no cold tripeptide, first duplicate
[8] = target: Human recombinant PTP1B, containing amino acids 1-320, fused to GST enzyme (glutathione S-transferase), wild type (active site cysteine 215) (human) (UniProt P18031); experiment: GST-PTP1B SPA binding assay, competition with tritiated BzN-EJJ-CONH2, non-mutated (Cys215) enzyme
[9] = target: Human recombinant PTP1B, containing amino acids 1-320, Cys215Ser mutant, fused to GST enzyme (glutathione S-transferase) (human) (UniProt P18031); experiment: SPA raw counts of bound tritiated BzN-EJJ-CONH2 on mutant GST-PTP1B with cold tripeptide, second duplicate; number split over r12 and r13
[10] = target: Human recombinant PTP1B, containing amino acids 1-320, Cys215Ser mutant, fused to GST enzyme (glutathione S-transferase) (human) (UniProt P18031); experiment: SPA raw counts of bound tritiated BzN-EJJ-CONH2 on mutant GST-PTP1B with cold tripeptide, first duplicate; number split over r10 and r11
[11] = target: Human recombinant PTP1B, containing amino acids 1-320, Cys215Ser mutant, fused to GST enzyme (glutathione S-transferase) (human) (UniProt P18031); experiment: GST-PTP1B SPA binding assay, competition with tritiated BzN-EJJ-CONH2, mutated (Ser215) enzyme
[12] = target: T4, Human recombinant PTP1B, containing amino acids 1-320, fused to GST enzyme (glutathione S-transferase), wild … (human, UniProt P18031 1-320); experiment: GST-PTP1B SPA binding assay, competition with tritiated BzN-EJJ-CONH2, non-mutated (Cys215) enzyme
T4 construct: ID No. 1, which is the DNA strand; GST is N-terminal (pGEX-2T); also called GST-PTP1B; GST-PTP-1B fusion protein; not shown: N-terminal glutathione S-transferase carrier and the pGEX-2T linker residues
T4 sequence: T1 sequence (P18031 1-320)
Experimental: 1. 110 μl of assay buffer. 2. 10 μl. of 50 nM tritiated BzN-EJJ-CONH_2 in assay buffer (1X) @ 25° C. 3. 10 μl. of testing compound in DMSO at 10 different concentrations in serial dilution (final DMSO, about 5% v/v) in duplicate @ 25° C. 4. 10 μl. of 3.75 μg/ml purified human recombinant GST-PTP1B in enzyme dilution buffer. 5. The plate is shaken for 2 minutes. 6. 10 μl. of 0.3 μg/ml anti-glutathione S-transferase (anti-GST) rabbit IgG (Molecular Probes) diluted in antibody dilution buffer @ 25° C. 7. The plate is shaken for 2 minutes. 8. 50 μl. of protein A-PVT SPA beads (Amersham) @ 25° C. 9. The plate is shaken for 5 minutes. The binding signal is quantified on a Microbeta 96-well plate counter. 10. The non-specific signal is defined as the enzyme-ligand binding in the absence of anti-GST antibody. 11. 100% binding activity is defined as the enzyme-ligand binding in the presence of anti-GST antibody, but in the absence of the testing ligands with the non-specific binding subtracted. 12. Percentage of inhibition is calculated accordingly.

[13] = target: T5, Human recombinant PTP1B, containing amino acids 1-320, Cys215Ser mutant, fused to GST enzyme (glutathione … (human, UniProt P18031 1-320)); experiment: GST-PTP1B SPA binding assay, competition with tritiated BzN-EJJ-CONH2, mutated (Ser215) enzyme
T5 construct: ID No. 7 (cDNA); the protein in the assay has Ser at 215; also called GST-PTP-1B Cys215Ser mutant; mutant GST-PTP1B; not shown: N-terminal glutathione S-transferase carrier and the pGEX-2T linker residues
T5 sequence: T1 sequence (P18031 1-320) with C215S

NC(=O)[C@H](Cc1ccc(C(F)(F)P(=O)(O)O)cc1)NC(=O)[C@H](Cc1ccc(C(F)(F)P(=O)(O)O)cc1)NC(=O)[C@H](CCC(=O)O)NC(=O)c1ccccc1 [Example 1, N-Benzoyl-L-glutamyl-[4-phosphono(difluoromethyl)]-L-phenylalanyl-[4-phosphono(difluoromethyl)]-L-phenlalanine Amide] (Bz-Glu-[F2Pmp]-[F2Pmp]-NH2)
IC50 [1]: 14 nM
IC50 [2]: 5 nM

COc1cc(OC)c(OC)cc1CC/N=C\Cc1ncc[nH]1 [Imine, reference compound]
inhibition at 2 µM ([1]; at 2 μM, non-mutated (Cys215)): 67%
inhibition at 2 µM ([3]; at 2 μM, mutated (Ser215)): 10%

Cc1cc(Cl)c2c(c1O)C(=O)C=CC2=O [Quinone, reference compound]
IC50 [1]: 4000 nM
IC50 ([3]; mutated (Ser215) GST-PTP1B): > 100000 nM

N-(3,5-Ditritio)benzoyl-L-glutamyl-[4-phosphono(difluoromethyl)]-L-phenylalanyl-[4-phosphono(difluoromethyl)]-L-phenylalanineamide (peptide)
Counts (dpm), no antibody (- control), non-specific signal [4]: 304 dpm
Counts (dpm), antibody (+ control), no competitor [5]: 6380 dpm
Counts (dpm), antibody (+ control), no competitor [6]: 5650 dpm
Counts (dpm), no antibody (- control), non-specific signal [7]: 252 dpm

N-Benzoyl-L-glutamyl-[4-phosphono(difluoromethyl)]-L-phenylalanyl-[4-phosphono(difluoromethyl)]-L-phenylalanineamide (peptide)
IC50 [8]: 14 nM
Counts (dpm) at 62.5 nM tripeptide [9]: 1110 dpm
Counts (dpm) at 125 nM tripeptide [9]: 588 dpm
Counts (dpm) at 250 nM tripeptide [9]: 273 dpm
Counts (dpm) at 125 nM tripeptide [10]: 873 dpm
Counts (dpm) at 250 nM tripeptide [10]: 288 dpm
IC50 [11]: 8 nM

B1: DADE(F2PMP)L hexapeptide (T. Burke et al. Biochem. Biophys. Res. Comm. 204, 129, (1994)) (peptide)
peptide: DADE[F2Pmp]L
notes: Terminal caps, if any, stand only in a structure drawing that is not in the text; also called hexamer peptide containing the phosphotyrosyl mimetic F2Pmp
IC50 [12]: 400 nM
IC50 [13]: 100 nM
